Data reported in patent US20110053865A1.
Where two headings read alike, the source gives them in different places.

B1: P23IL20B11-9GS-ALB1-9GS-37D5 (bispecific antibody, part only; not given: anti-albumin Nanobody, part only)
chain, part: EVQLVESGGGLVQAGGSLRLSCAVSGDTFSVYGMGWFRQAPGMEREFVAGISWNAGITAYTDTLKGRFTISRDRAKNTMYLQMNSLQPEDTAVYYCAADVTRHYIATRSKVDASMYDYWGQGTQVTVSSGGGGSGGGSGGGGSGGGSEVQLVESGGGLVQPGGSLRLSCAASGFTLDYLAIGWFRQAPGKEREGVSCVSSSGQYTYYADSVKGRFTISRDNAESTVYLQMNSLKPEDTAVYYCATDPECYRVRGYYNGEYDYWGQGTQVTVSS
B2: P23IL-121A2-9GS-ALB1-9GS-81G2 (bispecific antibody, part only; not given: anti-albumin Nanobody, part only)
chain, part: EVQLVESGGGLVQAGGSLRLSCAASGSIFNFNYMGWFRQAPGKEREFVAAIRWSGSSTYYADSVKGRFTISRDDAKNTVALQMNSLKPEDTAIYYCALRKGIPYSTSDRVIKGVNDYDYWGQGTQVTVSSGGGGSGGGSGGGGSGGGSEVQLVESGGGLVQPGGSLRLSCIASGLPFSTKSMGWFRQAPGKEREFVARISPGGTSRYYGDFVKGRFAISRDNAKNTTWLQMNSLKAEDTAVYYCASGERSTYIGSNYYRTNEYDYWGTGTQVTVSS
B3: P23IL119A3-9GS-ALB1-9GS-81A12 (bispecific antibody, part only; not given: anti-albumin Nanobody, part only)
chain, part: EVQLVESGGGLVQAGGSLRLSCAASGRIFSLPASGNIFNLLTIAWHRQAPGMQRELVATINSGSRTNYADSVKGRFTISRDNAQKTVYLQMNNLKPEDTAVYYCQTSGSGSPNFWGQGTQVTVSSGGGGSGGGSGGGGSGGGSEVQLVESGGGLVQAGGSLRLSCAASGRTLSSYAMGWFRQAPGKEREFVARISQGGTAIYYADSVKGRFTISRDNAKNTVYLQMNSLKPEDTAVYYCAKDPSPYYRGSAYLLSGSYDSWGQGTQVTVSS
B4: P23IL119A3V16-9GS-ALB8-9GS-81A12V4 (bispecific antibody, part only; not given: anti-albumin Nanobody, part only)
chain, part: EVQLLESGGGLVQPGGSLRLSCAASGRIFSLPASGNIFNLLTIAWYRQAPGKGRELVATINSGSRTYYADSVKGRFTISRDNSKKTLYLQMNSLRPEDTAVYYCQTSGSGSPNFWGQGTLVTVSSGGGGSGGGSGGGGSGGGSEVQLLESGGGLVQPGGSLRLSCAASGRTLSSYAMGWFRQAPGKGREFVSRISQGGTAIYYADSVKGRFTISRDNSKNTLYLQMNSLRPEDTAVYYCAKDPSPYYRGSAYLLSGSYDSWGQGTLVTVSS
B5: P23IL37D5-9GS-ALB1-9GS-20B11 (bispecific antibody, part only; not given: anti-albumin Nanobody, part only)
chain, part: EVQLVESGGGLVQPGGSLRLSCAASGFTLDYLAIGWFRQAPGKEREGVSCVSSSGQYTYYADSVKGRFTISRDNAESTVYLQMNSLKPEDTAVYYCATDPECYRVRGYYNGEYDYWGQGTQVTVSSGGGGSGGGSGGGGSGGGSEVQLVESGGGLVQAGGSLRLSCAVSGDTFSVYGMGWFRQAPGMEREFVAGISWNAGITAYTDTLKGRFTISRDRAKNTMYLQMNSLQPEDTAVYYCAADVTRHYIATRSKVDASMYDYWGQGTQVTVSS
B6: P23IL-121A2-9GS-ALB1-9GS-119G7 (bispecific antibody, part only; not given: anti-albumin Nanobody, part only)
chain, part: EVQLVESGGGLVQAGGSLRLSCAASGSIFNFNYMGWFRQAPGKEREFVAAIRWSGSSTYYADSVKGRFTISRDDAKNTVALQMNSLKPEDTAIYYCALRKGIPYSTSDRVIKGVNDYDYWGQGTQVTVSSGGGGSGGGSGGGGSGGGSEVQLVESGGGLVQAGGSLTLSCAVSGLTFNNYAMGWFRQVPGKEREFVAAISRSGLRTFYSDSVKGRFTISRDSAKSTVYVQMNNLKPEDTAVYFCAADRRTYYSEGPSLTDTLRYDYWGQGTQVTVSS
B7: P23IL119A3-9GS-ALB1-9GS-81G2 (bispecific antibody, part only; not given: anti-albumin Nanobody, part only)
chain, part: EVQLVESGGGLVQAGGSLRLSCAASGRIFSLPASGNIFNLLTIAWHRQAPGMQRELVATINSGSRTNYADSVKGRFTISRDNAQKTVYLQMNNLKPEDTAVYYCQTSGSGSPNFWGQGTQVTVSSGGGGSGGGSGGGGSGGGSEVQLVESGGGLVQPGGSLRLSCIASGLPFSTKSMGWFRQAPGKEREFVARISPGGTSRYYGDFVKGRFAISRDNAKNTTWLQMNSLKAEDTAVYYCASGERSTYIGSNYYRTNEYDYWGTGTQVTVSS
B8: P23IL37D5-9GS-ALB1 (bispecific antibody, part only; not given: anti-albumin Nanobody, part only)
chain, part: EVQLVESGGGLVQPGGSLRLSCAASGFTLDYLAIGWFRQAPGKEREGVSCVSSSGQYTYYADSVKGRFTISRDNAESTVYLQMNSLKPEDTAVYYCATDPECYRVRGYYNGEYDYWGQGTQVTVSSGGGGSGGGS
B9: P23IL37D5-15GS-ALB1-15GS-20B11 (bispecific antibody, part only; not given: anti-albumin Nanobody and linkers, not shown: small tags and cut ends)
chain, part: EVQLVESGGGLVQPGGSLRLSCAASGFTLDYLAIGWFRQAPGKEREGVSCVSSSGQYTYYADSVKGRFTISRDNAESTVYLQMNSLKPEDTAVYYCATDPECYRVRGYYNGEYDYWGQGTQVTVSSEVQLVESGGGLVQAGGSLRLSCAVSGDTFSVYGMGWFRQAPGMEREFVAGISWNAGITAYTDTLKGRFTISRDRAKNTMYLQMNSLQPEDTAVYYCAADVTRHYIATRSKVDASMYDYWGQGTQVTVSS

Legend:
[1] = molecular target: cynomolgus IL-23 (cynomolgus); experiment: cell-based or functional assay
[2] = molecular target: recombinant human IL-23 (p19/p40) (human) (UniProt Q9NPF7); experiment: cell-based or functional assay
recombinant human IL-23 (p19/p40) (human), sequence (Q9NPF7 20-189 limits assumed, chain 1 of 2): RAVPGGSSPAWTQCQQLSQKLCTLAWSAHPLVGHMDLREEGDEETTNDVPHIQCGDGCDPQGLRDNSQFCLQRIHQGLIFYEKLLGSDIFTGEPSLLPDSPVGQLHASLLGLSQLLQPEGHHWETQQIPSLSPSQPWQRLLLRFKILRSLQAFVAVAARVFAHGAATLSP
recombinant human IL-23 (p19/p40) (human), sequence (P29460 23-328 limits assumed, chain 2 of 2, further chain): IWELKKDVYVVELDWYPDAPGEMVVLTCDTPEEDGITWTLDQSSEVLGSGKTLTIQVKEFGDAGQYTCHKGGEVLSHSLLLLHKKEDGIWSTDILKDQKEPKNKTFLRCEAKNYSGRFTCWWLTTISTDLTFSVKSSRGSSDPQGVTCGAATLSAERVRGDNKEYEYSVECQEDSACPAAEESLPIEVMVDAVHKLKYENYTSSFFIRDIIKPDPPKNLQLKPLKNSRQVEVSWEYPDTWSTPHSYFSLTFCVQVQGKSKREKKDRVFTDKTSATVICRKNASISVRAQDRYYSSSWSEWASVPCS

[3] = molecular target: cynomolgus IL-23 (cynomolgus); experiment: cell-based or functional assay; remark: listed apart in the source
[4] = molecular target: recombinant human IL-23 (p19/p40) (human) (UniProt Q9NPF7); experiment: cell-based or functional assay; remark: listed apart in the source
[5] = molecular target: recombinant human IL-23 (p19/p40) (human) (UniProt Q9NPF7); experiment: inhibition ELISA, hIL-23/hIL-23R-Fc
[6] = molecular target: native human IL-23 (supernatant of SAC-stimulated THP-1 cells) (human) (UniProt Q9NPF7); experiment: cell-based or functional assay
native human IL-23 (supernatant of SAC-stimulated THP-1 cells) (human), sequence (Q9NPF7 20-189, chain 1 of 2): as the sequence (Q9NPF7 20-189 limits assumed, chain 1 of 2) above
native human IL-23 (supernatant of SAC-stimulated THP-1 cells) (human), sequence (P29460 23-328, chain 2 of 2, further chain): as the sequence (P29460 23-328 limits assumed, chain 2 of 2, further chain) above

| Binder | IC50, splenocyte assay, 3.8 pM cIL-23 [1] [pM] | IC50, splenocyte assay, 19 pM hIL-23 [2] [pM] | also measured |
| --- | --- | --- | --- |
| B1 | 8.59 | 4.47 |  |
| B2 |  | 8 |  |
| B3 | 3.3 | 2.5 |  |
| B4 | 6.7 | 4.6 | IC50, splenocyte assay, 3.8 pM cIL-23 [3]: 5.4 pM; IC50, splenocyte assay, 19 pM hIL-23 [4]: 3.6 pM; IC50, BA/F3 proliferation assay, 76 pM hIL-23 [2]: 49 pM; IC50 [5]: 23 pM |
| B5 |  |  | IC50, splenocyte assay, 19 pM native hIL-23 (Expt 3) [6]: 12 pM; IC50, BAF3 proliferation assay, 76 pM hIL-23 [2]: 19.5 pM |
| B6 |  | 39 |  |
| B7 | 3 | 4 |  |
| B8 | 419 | 29.8 | IC50, splenocyte assay, 19 pM native hIL-23 (Expt 3) [6]: 60 pM; IC50 [5]: 37 pM |
| B9 | 5.75 | 5.77 |  |
